Laboratory results from paper PMC3858555.

Target: CIN85 of MDCK cells (dog (endogenous in MDCK))
Assay: co-IP; whole cell lysates (RIPA), 500 μg; precipitated with anti-CIN85 antibody, blotted with anti-MUC1 (3C6, Ab5) or anti-Tac; washed with RIPA containing 0.5 M NaCl, 2% SDS; control unrelated IgG; intensity by Image J

## full-length MUC1 containing 22 tandem repeats in the VNTR domain (natural protein)
  fold co-precipitation against the construct lacking the cytoplasmic tail (22TR-Tac): 1.9 fold
  fold co-precipitation against the construct lacking the extracellular domain (Tac-CT): 2.4 fold
